In the supplement of paper PMC5998384:

Tests used:
HeLa Kyoto [1] = assay: solubility in G1/S (NP-40 vs SDS abundance) (log2 ratio); higher = more soluble; settings: cell cycle stage: G1/S
HeLa Kyoto [2] = assay: melting temperature (median over replicates), in situ; higher = more thermally stable
HeLa Kyoto [3] = assay: solubility change mitosis vs G1/S (difference of NP-40 vs SDS log2 ratios) (log2 ratio difference); higher = more soluble in mitosis
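Throughout, for melting temperature (median over replicates), in situ: HeLa Kyoto cells synchronized by double thymidine or nocodazole block, proteins quantified by TMT10plex mass spectrometry, three independent biological replicates.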
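Throughout, for solubility change mitosis vs G1/S (difference of NP-40 vs SDS log2 ratios): synchronized HeLa Kyoto cells (double thymidine block for G1/S, nocodazole release for mitosis), protein amounts in NP-40 versus SDS lysates quantified by mass spectrometry, three biological replicates.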
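Throughout, for solubility in G1/S (NP-40 vs SDS abundance): HeLa Kyoto cells arrested at G1/S by double thymidine block, proteins quantified by TMT10plex mass spectrometry in mild NP-40 versus SDS extracts, three biological replicates.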

Row | Substance | solubility in G1/S (log2) (HeLa Kyoto [1]) | melting temperature (HeLa Kyoto [2]; cell cycle stage: G1/S) [°C] | melting temperature (HeLa Kyoto [2]; cell cycle stage: mitosis) [°C] | solubility change mitosis (log2) (HeLa Kyoto [3])
1 | MALFPAFAGLSEAPDGGSSRKELDWLSNPSFCVGSITSLSQQTEAAPAHVSEGLPLTRSHLKSESSDESDTNKKLKQTSRKKKKEKKKKRKHQHHKKTKRKHGPSSSSRSETDTDSEKDKPSRGVGGSKKESEEPNQGNNAAADTGHRFVWLEDIQAVTGETFRTDKKPDPANWEYKSLYRGDIARYKRKGDSCLGINPKKQCISWEGTSTEKKHSRKQVERYFTKKSVGLMNIDGVAISSKTEPPSSEPISFIPVKDLEDAAPVTTWLNPLGIYDQSTTHWLQGQGPPEQESKQPDAQPDSESAALKAKVEEFNRRVRENPRDTQLWMAFVAFQDEVMKSPGLYAIEEGEQEKRKRSLKLILEKKLAILERAIESNQSSVDLKLAKLKLCTEFWEPSTLVKEWQKLIFLHPNNTALWQKYLLFCQSQFSTFSISKIHSLYGKCLSTLSAVKDGSILSHPALPGTEEAMFALFLQQCHFLRQAGHSEKAISLFQAMVDFTFFKPDSVKDLPTKGQVEFFEPFWDSGEPRAGEKGARGWKAWMHQQERGGWVVINPDEDDDEPEEDDQEIKDKTLPRWQIWLAAERSRDQRHWRPWRPDKTKKQTEEDCEDPERQVLFDDIGQSLIRLSSHDLQFQLVEAFLQFLGVPSGFTPPASCLYLAMDENSIFDNGLYDEKPLTFFNPLFSGASCVGRMDRLGYPRWTRGQNREGEEFIRNVFHLVMPLFSGKEKSQLCFSWLQYEIAKVIWCLHTKNKKRLKSQGKNCKKLAKNLLKEPENCNNFCLWKQYAHLEWLLGNTEDARKVFDTALGMAGSRELKDSDLCELSLLYAELEVELSPEVRRAATARAVHILTKLTESSPYGPYTGQVLAVHILKARKAYEHALQDCLGDSCVSNPAPTDSCSRLISLAKCFMLFQYLTIGIDAAVQIYEQVFAKLNSSVFPEGSGEGDSASSQSWTSVLEAITLMHTSLLRFHMKVSVYPLAPLREALSQALKLYPGNQVLWRSYVQIQNKSHSASKTRRFFDTITRSAKPLEPWLFAIEAEKLRKRLVETVQRLDGREIHATIPETGLMHRIQALFENAMRSDSGSQCPLLWRMYLNFLVSLGNKERSKGVFYKALQNCPWAKVLYLDAVEYFPDEMQEILDLMTEKELRVRLPLEELELLLED [NRDE2] | -0.208 | 48.5 | 49 | -0.031
2 | MAENREPRGAVEAELDPVEYTLRKRLPSRLPRRPNDIYVNMKTDFKAQLARCQKLLDGGARGQNACSEIYIHGLGLAINRAINIALQLQAGSFGSLQVAANTSTVELVDELEPETDTREPLTRIRNNSAIHIRVFRVTPK [POP7] | 0.19 | – | 54.9 | -0.0753
3 | MSCGNEFVETLKKIGYPKADNLNGEDFDWLFEGVEDESFLKWFCGNVNEQNVLSERELEAFSILQKSGKPILEGAALDEALKTCKTSDLKTPRLDDKELEKLEDEVQTLLKLKNLKIQRRNKCQLMASVTSHKSLRLNAKEEEATKKLKQSQGILNAMITKISNELQALTDEVTQLMMFFRHSNLGQGTNPLVFLSQFSLEKYLSQEEQSTAALTLYTKKQFFQGIHEVVESSNEDNFQLLDIQTPSICDNQEILEERRLEMARLQLAYICAQHQLIHLKASNSSMKSSIKWAEESLHSLTSKAVDKENLDAKISSLTSEIMKLEKEVTQIKDRSLPAVVRENAQLLNMPVVKGDFDLQIAKQDYYTARQELVLNQLIKQKASFELLQLSYEIELRKHRDIYRQLENLVQELSQSNMMLYKQLEMLTDPSVSQQINPRNTIDTKDYSTHRLYQVLEGENKKKELFLTHGNLEEVAEKLKQNISLVQDQLAVSAQEHSFFLSKRNKDVDMLCDTLYQGGNQLLLSDQELTEQFHKVESQLNKLNHLLTDILADVKTKRKTLANNKLHQMEREFYVYFLKDEDYLKDIVENLETQSKIKAVSLED [HAUS3] | 0.0967 | 48.6 | 49.8 | 0.224
4 | MSRKQNQKDSSGFIFDLQSNTVLAQGGAFENMKEKINAVRAIVPNKSNNEIILVLQHFDNCVDKTVQAFMEGSASEVLKEWTVTGKKKNKKKKNKPKPAAEPSNGIPDSSKSVSIQEEQSAPSSEKGGMNGYHVNGAINDTESVDSLSEGLETLSIDARELEDPESAMLDTLDRTGSMLQNGVSDFETKSLTMHSIHNSQQPRNAAKSLSRPTTETQFSNMGMEDVPLATSKKLSSNIEKSVKDLQRCTVSLARYRVVVKEEMDASIKKMKQAFAELESCLMDREVALLAEMDKVKAEAMEILLSRQKKAELLKKMTHVAVQMSEQQLVELRADIKHFVSERKYDEDLGRVARFTCDVETLKKSIDSFGQVSHPKNSYSTRSRCSSVTSVSLSSPSDASAASSSTCASPPSLTSANKKNFAPGETPAAIANSSGQPYQPLREVLPGNRRGGQGYRPQGQKSNDPMNQGRHDSMGRYRNSSWYSSGSRYQSAPSQAPGNTIERGQTHSAGTNGTGVSMEPSPPTPSFKKGLPQRKPRTSQTEAVNS [SPATS2] | -1.01 | 52.2 | 51.5 | 0.928
5 | MAALGRPFSGLPLSGGSDFLQPPQPAFPGRAFPPGADGAELAPRPGPRAVPSSPAGSAARGRVSVHCKKKHKREEEEDDDCPVRKKRITEAELCAGPNDWILCAHQDVEGHGVNPSVSGLSIPGILDVICEEMDQTTGEPQCEVARRKLQEIEDRIIDEDEEVEADRNVNHLPSLVLSDTMKTGLKREFDEVFTKKMIESMSRPSMELVLWKPLPELLSDKPKPSSNTKNYTGESQAKHVAAGTAFPQRTELFSEPRPTGMSLYNSLETATSTEEEMEL [CCDC117] | 0.515 | 51.6 | 53.2 | 0.183
6 | MKDRLEQLKAKQLTQDDDTDAVEIAIDNTAFMDEFFSEIEETRLNIDKISEHVEEAKKLYSIILSAPIPEPKTKDDLEQLTTEIKKRANNVRNKLKSMEKHIEEDEVRSSADLRIRKSQHSVLSRKFVEVMTKYNEAQVDFRERSKGRIQRQLEITGKKTTDEELEEMLESGNPAIFTSGIIDSQISKQALSEIEGRHKDIVRLESSIKELHDMFMDIAMLVENQGEMLDNIELNVMHTVDHVEKARDETKKAVKYQSQARKKLIIIIVLVVVLLGILALIIGLSVGLN [STX3] | 0.157 | 53.9 | – | 0.0981
7 | MLGWIKRLIRMVFQQVGVSMQSVLWSRKPYGSSRSIVRKIGTNLSLIQCPRVQFQINSHATEWSPSHPGEDAVASFADVGWVAKEEGECSARLRTEVRSRPPLQDDLLFFEKAPSRQISLPDLSQEEPQLKTPALANEEALQKICALENELAALRAQIAKIVTQQEQQNLTAGDLDSTTFGTIPPHPPPPPPPLPPPALGLHQSTSAVDLIKERREKRANAGKTLVKNNPKKPEMPNMLEILKEMNSVKLRSVKRSEQDVKPKPVDATDPAALIAEALKKKFAYRYRSDSQDEVEKGIPKSESEATSERVLFGPHMLKPTGKMKALIENVSDS [MTFR1] | 0.556 | 49.3 | 52.1 | 0.0301
8 | MRPLLGLLLVFAGCTFALYLLSTRLPRGRRLGSTEEAGGRSLWFPSDLAELRELSEVLREYRKEHQAYVFLLFCGAYLYKQGFAIPGSSFLNVLAGALFGPWLGLLLCCVLTSVGATCCYLLSSIFGKQLVVSYFPDKVALLQRKVEENRNSLFFFLLFLRLFPMTPNWFLNLSAPILNIPIVQFFFSVLIGLIPYNFICVQTGSILSTLTSLDALFSWDTVFKLLAIAMVALIPGTLIKKFSQKHLQLNETSTANHIHSRKDT [TMEM41A] | 0.0255 | 55.1 | 55.5 | -0.205
9 | MEADSPAGPGAPEPLAEGAAAEFSSLLRRIKGKLFTWNILKTIALGQMLSLCICGTAITSQYLAERYKVNTPMLQSFINYCLLFLIYTVMLAFRSGSDNLLVILKRKWWKYILLGLADVEANYVIVRAYQYTTLTSVQLLDCFGIPVLMALSWFILHARYRVIHFIAVAVCLLGVGTMVGADILAGREDNSGSDVLIGDILVLLGASLYAISNVCEEYIVKKLSRQEFLGMVGLFGTIISGIQLLIVEYKDIASIHWDWKIALLFVAFALCMFCLYSFMPLVIKVTSATSVNLGILTADLYSLFVGLFLFGYKFSGLYILSFTVIMVGFILYCSTPTRTAEPAESSVPPVTSIGIDNLGLKLEENLQETHSAVL [SLC35F2] | 0.147 | – | 56.1 | -0.182
10 | ZFHX3 | -0.242 | 48.7 | 49.3 | 0.302
11 | MAEAGTGEPSPSVEGEHGTEYDTLPSDTVSLSDSDSDLSLPGGAEVEALSPMGLPGEEDSGPDEPPSPPSGLLPATVQPFHLRGMSSTFSQRSRDIFDCLEGAARRAPSSVAHTSMSDNGGFKRPLAPSGRSPVEGLGRAHRSPASPRVPPVPDYVAHPERWTKYSLEDVTEVSEQSNQATALAFLGSQSLAAPTDCVSSFNQDPSSCGEGRVIFTKPVRGVEARHERKRVLGKVGEPGRGGLGNPATDRGEGPVELAHLAGPGSPEAEEWGSHHGGLQEVEALSGSVHSGSVPGLPPVETVGFHGSRKRSRDHFRNKSSSPEDPGAEV [TSSC4] | 0.167 | 51 | 50.5 | 0.0166
12 | MNRLPDDYDPYAVEEPSDEEPALSSSEDEVDVLLHGTPDQKRKLIRECLTGESESSSEDEFEKEMEAELNSTMKTMEDKLSSLGTGSSSGNGKVATAPTRYYDDIYFDSDSEDEDRAVQVTKKKKKKQHKIPTNDELLYDPEKDNRDQAWVDAQRRGYHGLGPQRSRQQQPVPNSDAVLNCPACMTTLCLDCQRHESYKTQYRAMFVMNCSINKEEVLRYKASENRKKRRVHKKMRSNREDAAEKAETDVEEIYHPVMCTECSTEVAVYDKDEVFHFFNVLASHS [EAPP] | 0.159 | 50.3 | – | 0.14
13 | MVGEMETKEKPKPTPDYLMQLMNDKKLMSSLPNFCGIFNHLERLLDEEISRVRKDMYNDTLNGSTEKRSAELPDAVGPIVQLQEKLYVPVKEYPDFNFVGRILGPRGLTAKQLEAETGCKIMVRGKGSMRDKKKEEQNRGKPNWEHLNEDLHVLITVEDAQNRAEIKLKRAVEEVKKLLVPAAEGEDSLKKMQLMELAILNGTYRDANIKSPALAFSLAATAQAAPRIITGPAPVLPPAALRTPTPAGPTIMPLIRQIQTAVMPNGTPHPTAAIVPPGPEAGLIYTPYEYPYTLAPATSILEYPIEPSGVLGAVATKVRRHDMRVHPYQRIVTADRAATGN [QKI] | 0.613 | 50.2 | 49.8 | -0.0775
14 | MEPAGPCGFCPAGEVQPARYTCPRCNAPYCSLRCYRTHGTCAENFYRDQVLGELRGCSAPPSRLASALRRLRQQRETEDEPGEAGLSSGPAPGGLSGLWERLAPGEKAAFERLLSRGEAGRLLPPWRPWWWNRGAGPQLLEELDNAPGSDAAELELAPARTPPDSVKDASAAEPAAAERVLGDVPGACTPVVPTRIPAIVSLSRGPVSPLVRFQLPNVLFAYAHTLALYHGGDDALLSDFCATLLGVSGALGAQQVFASAEEALQAAAHVLEAGEHPPGPLGTRGAMHEVARILLGEGPTNQKGYTLAALGDLAQTLGRARKQAVAREERDHLYRARKKCQFLLAWTNENEAALTPLALDCARAHQAHAVVAEEVAALTGELERLWGGPVPPAPRTLIEELPS [ZNHIT2] | 0.384 | 48.9 | 49.4 | 0.141
15 | MPVTHRKSDASDMNSDTSPSCRLRAFSRGGSLESRSSSSRSRSFTLDDESLKYLTHEEKDVLLFFEETIDSLDEDFEEPVLCDGGVCCLCSPSLEESTSSPSEPEDVIDLVQPAPGAGEAEGLPEGTQAAGPAPAGKEHRKQDAETPPPPDPPAPETLLAPPPLPSTPDPPRRELRAPSPPVEHPRLLRSVPTPLVMAQKISERMAGNEALSPTSPFREGRPGEWRTPAARGPRSGDPGPGPSHPAQPKAPRFPSNIIVTNGAAREPRRTLSRAAVSVQERRAQVLATIHGHAGAFPAAGDAGEGAPGGGSSPERVARGRGLPGPAESLRAGGQAPRGPALANGFPSAHEALKSAPSSFAPAGKSLCFRPGPALPSTRARQSFPGPRQPNGAQDWRRADSLPRPQGITVQFAGRGSSEEARREALRKLGLLRESS [PROSER2] | 0.405 | 48.6 | 51.3 | -0.0862
